Experimental data from PMC1479692, “The PLAC1-homology region of the ZP domain is sufficient for protein polymerisation” (BMC Biochemistry, 2006).

Molecular target: the molecule itself
Experiment: SEC; purified MBP-ZP-N-6his on Sephacryl S-300 HR (FPLC) and Bio-Sil SEC-250-5 (HPLC) columns, ~300 kDa Mr cut-off; buffer F (10 mM Na-HEPES pH 8.0, 100 mM NaCl, 1 mM maltose, 1 mM NaN3); also with 10 mM DTT, and after pre-incubation with 10 mM EDTA

B1: MBP-ZP-N-6his fusion protein (PLAC1-homology region, ZP-N, of the ZP domain of mouse ZP3) (domain or fragment, UniProt P10761 42-143, looked up)
chain: VKVECLEAELVVTVSRDLFGTGKLVQPGDLTLGSEGCQPRVSVDTDVVRFNAQLHECSSRVQMTKDALVYSTFLLHDPRPVSGLSILRTNRVEVPIECRYPR
modifications: intramolecular disulfides Cys 46-Cys 139 and Cys 78-Cys 98 (ZP3 numbering)
notes: mouse ZP3 (zona pellucida sperm receptor), aa 42-143, the 102-amino acid ZP-N fragment; The assay buffer contained 1 mM maltose; also called recombinant ZP-N; ZP-N fragment; source: E. coli Origami B (DE3) (trxB gor), co-expressing ΔSSdsbC and TrxA(G33P, P34Y); purified (Ni2+ HiTrap Chelating HP, amylose resin, Mono Q); not shown: His6 (LEH6), C-terminal, kept
- binding result: binds
